Measurements taken from patent US12613245 (CORNELL UNIVERSITY, dated 2026).

T1: native cell surface CEMIP/KIAA1199 on human MKN45 gastric and N2LA lung cancer cells (human, UniProt Q8WUJ3 31-1361)
T1 construct: Endogenous CEMIP on live CEMIP-high human cell lines (MKN45, N2LA), the target in flow cytometry; also called native CEMIP expressed on the surface
T1 sequence: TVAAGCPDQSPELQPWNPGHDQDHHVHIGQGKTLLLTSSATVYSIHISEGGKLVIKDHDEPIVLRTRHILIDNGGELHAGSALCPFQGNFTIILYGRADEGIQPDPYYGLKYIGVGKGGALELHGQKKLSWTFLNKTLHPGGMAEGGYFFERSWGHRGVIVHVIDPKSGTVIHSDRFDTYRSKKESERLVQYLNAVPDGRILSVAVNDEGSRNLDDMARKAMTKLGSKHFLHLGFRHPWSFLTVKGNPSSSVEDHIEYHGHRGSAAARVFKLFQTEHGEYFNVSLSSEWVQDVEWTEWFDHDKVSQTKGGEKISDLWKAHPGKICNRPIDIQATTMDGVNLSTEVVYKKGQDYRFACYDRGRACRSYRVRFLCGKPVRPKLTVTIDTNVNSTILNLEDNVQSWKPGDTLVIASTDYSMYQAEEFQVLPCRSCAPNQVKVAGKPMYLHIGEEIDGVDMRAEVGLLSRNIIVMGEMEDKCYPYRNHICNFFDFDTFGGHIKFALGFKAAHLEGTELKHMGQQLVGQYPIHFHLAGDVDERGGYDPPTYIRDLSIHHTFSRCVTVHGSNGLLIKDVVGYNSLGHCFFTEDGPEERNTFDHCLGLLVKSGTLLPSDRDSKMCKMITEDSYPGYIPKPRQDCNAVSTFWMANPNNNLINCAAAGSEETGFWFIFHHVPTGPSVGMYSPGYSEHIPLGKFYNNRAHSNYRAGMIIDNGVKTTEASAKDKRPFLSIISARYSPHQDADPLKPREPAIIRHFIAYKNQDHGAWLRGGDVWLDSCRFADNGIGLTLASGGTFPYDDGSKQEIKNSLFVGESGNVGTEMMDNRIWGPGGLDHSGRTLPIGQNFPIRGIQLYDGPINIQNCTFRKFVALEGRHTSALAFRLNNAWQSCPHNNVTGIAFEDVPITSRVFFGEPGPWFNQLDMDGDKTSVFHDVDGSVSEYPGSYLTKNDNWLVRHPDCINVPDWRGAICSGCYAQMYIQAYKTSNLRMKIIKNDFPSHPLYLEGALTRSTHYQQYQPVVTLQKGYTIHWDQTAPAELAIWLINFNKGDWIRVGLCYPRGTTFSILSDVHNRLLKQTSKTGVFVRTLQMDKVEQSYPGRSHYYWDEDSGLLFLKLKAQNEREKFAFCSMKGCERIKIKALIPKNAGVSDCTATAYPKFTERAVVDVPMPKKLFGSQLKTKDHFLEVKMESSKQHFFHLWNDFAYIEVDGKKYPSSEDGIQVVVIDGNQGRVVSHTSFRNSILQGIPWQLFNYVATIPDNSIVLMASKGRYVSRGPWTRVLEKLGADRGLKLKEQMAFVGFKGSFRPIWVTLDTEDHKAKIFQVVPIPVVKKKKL

T2: recombinant/purified KIAA1199/CEMIP protein (amino acids 1-649) (human, UniProt Q8WUJ3 31-649)
T2 construct: Truncated CEMIP used as immunogen and as ELISA antigen; also called truncated version of KIAA1199/CEMIP protein
T2 sequence: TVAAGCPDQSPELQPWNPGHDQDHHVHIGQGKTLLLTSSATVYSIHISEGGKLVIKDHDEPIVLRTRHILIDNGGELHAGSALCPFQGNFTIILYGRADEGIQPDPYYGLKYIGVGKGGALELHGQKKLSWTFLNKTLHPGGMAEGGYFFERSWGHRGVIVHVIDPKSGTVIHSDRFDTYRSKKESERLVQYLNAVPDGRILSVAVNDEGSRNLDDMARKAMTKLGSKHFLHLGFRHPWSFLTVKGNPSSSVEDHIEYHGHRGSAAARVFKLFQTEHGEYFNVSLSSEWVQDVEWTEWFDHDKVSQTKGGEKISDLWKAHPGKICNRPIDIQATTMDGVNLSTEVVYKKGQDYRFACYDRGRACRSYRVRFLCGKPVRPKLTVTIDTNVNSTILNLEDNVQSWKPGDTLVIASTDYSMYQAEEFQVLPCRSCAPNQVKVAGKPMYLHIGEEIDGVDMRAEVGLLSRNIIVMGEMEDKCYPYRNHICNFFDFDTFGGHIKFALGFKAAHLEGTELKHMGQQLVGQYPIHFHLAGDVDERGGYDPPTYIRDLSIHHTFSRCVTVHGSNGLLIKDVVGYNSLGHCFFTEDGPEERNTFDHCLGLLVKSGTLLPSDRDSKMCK


Assays:
[1] = target: T1, native cell surface CEMIP/KIAA1199 on …; test: flow cytometry on MKN45 cells
[2] = target: T2, recombinant/purified KIAA1199/CEMIP …; test: ELISA on recombinant CEMIP, purified antibody (with flow cytometry as second assay)
[3] = target: T1, native cell surface CEMIP/KIAA1199 on …; test: flow cytometry on live MKN45 and N2LA cells, purified antibody
Method: The binding of anti-CEMIP antibodies to native CEMIP expressed on the surface of human MKN45 gastric and N2LA lung cancer cell lines is shown.
Purified monoclonal antibodies were tested in secondary flow-cytometry screens on 2 CEMIPhi cell lines, MKN45 and N2LA (FIG. 13). Flow cytometry is performed on live cells, and antibodies bind to the native cell surface CEMIP/KIAA1199. Three antibody clones with high affinity and specificity for human KIAA1199/CEMIP were identified from the first screen: 07F11C02, 10F01B02 and 01F11A01, and the sequence of these antibodies was obtained (Table 12). One of these clones resulted from the protein immunization and two resulted from the DNA immunization (FIG.

Binder | binding result [1] | binding result [2] | binding result [3]
12D02 (antibody, mouse IgG1, kappa, V domains shown, Mouse monoclonal from hybridoma (second phase screen), IgG1 kappa; also called cAb5775) VH: EVQLQQSGPELVKPGASMKISCKASGYSFTAYTMNWVKQSHGENLEWIGLINPYNGGTTYNQKFKGKATLTVDKSSSTAYMELLSLTSEDSAVYYCASYDYGYAMDYWGQGTSVTVSS VL: DVLMTQTPLSLPVSLGDQASISCRSSQSIVHRNGNTYLEWYLQKPGQSPKLLIYKVSNRFSGVPDRFSGSGSGTDFTLKISRVEAEDLGVYYCFQGSHVPWTFGGGTKLEIKR | binds | binds | 
12D08 (antibody, mouse IgG2a, kappa, V domains shown, Mouse monoclonal from hybridoma (second phase screen), IgG2a kappa; also called cAb5777) VH: EVQLQQSGAELVKPGASVKLSCTASGFNIKDTYMHWVKQRPEQGLIWIGNIDPANGHTKYAPKFQGKATITADTSSNTAYLQLSSLTSEDTAVYYCARSNDYDVDFDYWGQGTTLTVSS VL: DIVMSQSPSSLAVSAGEKVTMSCKSSQSLLNSRTRKNYLAWYQQKPGQSPKLLIYWASTRESGVPDRFTGSGSGTDFSLTISSVQAEDLAVYYCKQSYNLYTFGGGTKLEIKR | binds | binds | 
07F11C02 (antibody, mouse IgG2a, kappa, V domains shown, Mouse monoclonal purified from hybridoma, IgG2a kappa; also called cAb4853) VH: DVQLVESGGGLVQPGGSRKLSCAASGFAFSSFGMHWVRQAPERGLEWVAYISSASNTIYYADTVKGRFTISRDNPKSTLFLQMTSLRSEDTAIYYCAKRDWDLYAMDYWGQGTSVTVSS VL: DIVMTQSQKFLSTSVGDRVTITCKASQNVGTAVAWYQQKPGQSPELLIYSASNRHTGVPARFTGSGSGTDFTLTITNMQSEDLADYFCQQYSSSPTFGGGTKLESKR |  |  | binds

Further lines, results first:

binding result [1] | binding result [2] | binding result [3] | Binder
binds | binds |  | 12A12 (antibody, mouse IgG1, kappa, V domains shown, Mouse monoclonal from hybridoma (second phase screen), IgG1 kappa; also called cAb5776) VH: EVQLQQSGPELVKPGVSMKISCKASGYSFTAYTMNWVKQSHGENLEWIGLINPYNGGTTYNQKFKGKATLTVDKSSSTAYMELLSLTSEDSAVYYCASYDYGYAMDYWGQGTSVTVSS VL: DVLMTQTPLSLPVSLGDQASISCRSSQSIVHRSGNTYLEWYLQKPGQSPKLLIYKVSNRFSGVPDRFSGSGSGTDFTLKISRVEAEDLGVYYCFQGSHVPWTFGGGTKLEIKR
binds | binds |  | 13G04 (antibody, mouse IgG1, kappa, V domains shown, Mouse monoclonal from hybridoma (second phase screen), IgG1 kappa; also called cAb5778) VH: EVHLQQSGPELVKPGASMKISCKASGYSFTAYTMNWVKQSHGKNLEWIGLINPYNGGTTYNQKFKGKATLTVDKSSSTAYMELLSLTSEDSAVYYCASYYGGRGWYFDVWGAGTSVTVSS VL: DIVLTQSPASLAVSLGQRATISCRASKSVSTSGYSYVHWYQQKPGQPPKLLIYLASNLESGVPARFSGSGSGTDFTLNIHPVEEEDAATYYCQNSRELPYTFGGGTKLEMKR
